B1: PN-1 produced in insect cells: glycosylated PN-1 produced in insect cells using a baculovirus expression system (protein, UniProt P07093 20-398, looked up)
Glia-derived nexin: SHFNPLSLEELGSNTGIQVFNQIVKSRPHDNIVISPHGIASVLGMLQLGADGRTKKQLAMVMRYGVNGVGKILKKINKAIVSKKNKDIVTVANAVFVKNASEIEVPFVTRNKDVFQCEVRNVNFEDPASACDSINAWVKNETRDMIDNLLSPDLIDGVLTRLVLVNAVYFKGLWKSRFQPENTKKRTFVAADGKSYQVPMLAQLSVFRCGSTSAPNDLWYNFIELPYHGESISMLIALPTESSTPLSAIIPHISTKTIDSWMSIMVPKRVQVILPKFTAVAQTDLKEPLKVLGITDMFDSSKANFAKITTGSENLHVSHILQKAKIEVSEDGTKASAATTAILIARSSPPWFIVDRPFLFFIRHNPTGAVLFMGQINKP
modifications: insect cell glycosylated
notes: glycosylated PN-1 produced in insect cells using a baculovirus expression system
B2: N99C (conjugate, UniProt P07093 20-398, looked up, variant N99C)
Glia-derived nexin: SHFNPLSLEELGSNTGIQVFNQIVKSRPHDNIVISPHGIASVLGMLQLGADGRTKKQLAMVMRYGVNGVGKILKKINKAIVSKKNKDIVTVANAVFVKCASEIEVPFVTRNKDVFQCEVRNVNFEDPASACDSINAWVKNETRDMIDNLLSPDLIDGVLTRLVLVNAVYFKGLWKSRFQPENTKKRTFVAADGKSYQVPMLAQLSVFRCGSTSAPNDLWYNFIELPYHGESISMLIALPTESSTPLSAIIPHISTKTIDSWMSIMVPKRVQVILPKFTAVAQTDLKEPLKVLGITDMFDSSKANFAKITTGSENLHVSHILQKAKIEVSEDGTKASAATTAILIARSSPPWFIVDRPFLFFIRHNPTGAVLFMGQINKP
modifications: PEG
B3: G52C (conjugate, UniProt P07093 20-398, looked up, variant G52C)
Glia-derived nexin: SHFNPLSLEELGSNTGIQVFNQIVKSRPHDNIVISPHGIASVLGMLQLGADCRTKKQLAMVMRYGVNGVGKILKKINKAIVSKKNKDIVTVANAVFVKNASEIEVPFVTRNKDVFQCEVRNVNFEDPASACDSINAWVKNETRDMIDNLLSPDLIDGVLTRLVLVNAVYFKGLWKSRFQPENTKKRTFVAADGKSYQVPMLAQLSVFRCGSTSAPNDLWYNFIELPYHGESISMLIALPTESSTPLSAIIPHISTKTIDSWMSIMVPKRVQVILPKFTAVAQTDLKEPLKVLGITDMFDSSKANFAKITTGSENLHVSHILQKAKIEVSEDGTKASAATTAILIARSSPPWFIVDRPFLFFIRHNPTGAVLFMGQINKP
modifications: PEG
B4: S1C (conjugate, UniProt P07093 20-398, looked up, variant S1C)
Glia-derived nexin: CHFNPLSLEELGSNTGIQVFNQIVKSRPHDNIVISPHGIASVLGMLQLGADGRTKKQLAMVMRYGVNGVGKILKKINKAIVSKKNKDIVTVANAVFVKNASEIEVPFVTRNKDVFQCEVRNVNFEDPASACDSINAWVKNETRDMIDNLLSPDLIDGVLTRLVLVNAVYFKGLWKSRFQPENTKKRTFVAADGKSYQVPMLAQLSVFRCGSTSAPNDLWYNFIELPYHGESISMLIALPTESSTPLSAIIPHISTKTIDSWMSIMVPKRVQVILPKFTAVAQTDLKEPLKVLGITDMFDSSKANFAKITTGSENLHVSHILQKAKIEVSEDGTKASAATTAILIARSSPPWFIVDRPFLFFIRHNPTGAVLFMGQINKP
modifications: PEG

Target: Thrombin (Homo sapiens, UniProt P00734)
Assay: thrombin inhibition activity assay (D.4), specific activity
Format: biochemical
Conditions: for ACTIVITY, AFTER PEG MODIFICATION: after cysteine-PEGylation with Maleimido-PEG; for REL TO WT, BEFORE PEG MODIFICATION: activity relative to wild type PN-1; for REL TO ACTIVITY BEFORE PEG, AFTER PEG MODIFICATION: cysteine-PEGylated protein relative to same protein before PEGylation; for REL TO WT, AFTER PEG MODIFICATION: cysteine-PEGylated protein relative to wild type PN-1
Procedure: Refolded or soluble protein was tested for capacity to inhibit thrombin in a standard assay. Briefly, serial 2-fold dilutions of PN-1 variant were added to microtiter plate wells (50 μl/well), followed by 50 μl of a 30 μg/ml heparin solution, followed by 1 NIH unit of thrombin in 50 μl. These were allowed to incubate at 25° C. for 15 minutes. Residual thrombin activity was measured by the addition of 50 μl S-2238 (Kabi Pharmaceuticals) at 0.625 mg/ml. PN-1 variants were tested for their ability to inhibit urokinase using the substrate S-2444, plasmin using the substrate S-2390, tPA using the substrate S2288, Factor Xa using the substrate S-2222 or S-2765, kallikrein using the substrate S-2302, human neutrophil elastase using s-AAPV-pna (Sigma), cathepsin G using s-AAPF-pna (Sigma) in a similar manner, with or without the addition of heparin.
Each of the PN-1 site-directed mutant proteins, as well as wild type PN-1, were modified by cysteine-PEGylation using the protocol described in F.2. The activity of wild type PN-1, each of the PN-1 site-directed mutants, and the cysteine-PEGylated wild type and mutant proteins was determined using the assay described in D.4.

Row | Molecule | specific activity vs thrombin and association kinetics, including rate enhancement effect of heparin (compared with authentic PN-1) | ACTIVITY, AFTER PEG MODIFICATION | SPECIFIC ACTIVITY, BEFORE PEG MODIFICATION | REL TO WT, BEFORE PEG MODIFICATION | REL TO ACTIVITY BEFORE PEG, AFTER PEG MODIFICATION | REL TO WT, AFTER PEG MODIFICATION
1 | B1 | indistinguishable from authentic PN-1 | – | – | – | – | –
2 | B2 | – | 0.50 NIH units of thrombin inhibited per μg PN1 (variant) | 0.20 NIH units of thrombin inhibited per μg PN1 (variant) | 0.40 | 2.5 | 1.0
3 | B3 | – | 0.05 NIH units of thrombin inhibited per μg PN1 (variant) | 0.024 NIH units of thrombin inhibited per μg PN1 (variant) | 0.048 | 2.1 | 0.1
4 | B4 | – | 0.25 NIH units of thrombin inhibited per μg PN1 (variant) | 0.10 NIH units of thrombin inhibited per μg PN1 (variant) | 0.20 | 2.5 | 0.50

Source: patent publication US5766897A, “Cysteine-pegylated proteins” (Incyte Pharmaceuticals, Inc., priority 1995, dated 1998)
